In patent publication US20040131615A1, “Methods for treating pain by administering a nerve growth factor antagonist and an opioid analgesic and compositions containing the same” (priority 2002, published 2004):

Target: human NGF (Homo sapiens, UniProt P01138)
Test: binding affinity; method not given

Sequence of human NGF (P01138 122-241 limits assumed): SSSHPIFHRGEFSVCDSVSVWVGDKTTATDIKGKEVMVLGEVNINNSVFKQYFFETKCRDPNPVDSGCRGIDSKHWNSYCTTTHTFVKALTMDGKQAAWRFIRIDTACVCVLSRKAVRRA

B1: humanized anti-NGF antibody E3 (antibody, V domains shown)
VH: VQLQESGPGLVKLPSETLSLTCTVSGFSLIGYDLNWIRQPPGKGLEWIGIIWGDGTTDYNSAVKSRVTISKDTSKNQFSLKLSSVTAADTAVYYCARGGYWYATSYYFDYWGQGTLVTVS
VL: DIQMTQSPSSLSASVGDRVTITCRASQSISNNLNWYQQKPGKAPKLLIYYTSRFHSGVPSRFSGSGSGTDFTFTISSLQPEDIATYYCQQEHTLPYTFGQGTKLEIK
With B1 the Kd was 0.07 nM.
